{"source": "patent US20040229826A1", "about": "“Dose-dense & sequential adjuvant cancer chemotherapy” (priority 2002, published 2004)", "molecules": {"B1": {"name": "filgrastim (protein, chains of the INN, looked up)", "chain": "MTPLGPASSLPQSFLLKCLEQVRKIQGDGAALQEKLCATYKLCHPEELVLLGHSLGIPWAPLSSCPSQALQLAGCLSQLHSGLFLYQGLLQALEGISPELGPTLDTLQLDVADFATTIWQQMEELGMAPALQPTQGAMPAFASAFQRRAGGVLVASHLQSFLEVSYRVLRHLAQP"}}, "experimental": "Designed for outpatients, all chemotherapy (FIG. 1) was given intravenously, starting within 84 days from primary surgery. […]\nDisease-free survival (DFS), which was the primary study endpoint, was measured from study entry until local recurrence, distant relapse or death without relapse, whichever occurred first. […] The secondary endpoint of overall survival (OS) was measured from study entry until death from any cause; surviving patients were censored at the date of last contact. […]", "data": [{"molecule": "B1", "values": [{"measurement": "incidence of leukemia", "setting": "influence of filgrastim", "result": "not influenced"}, {"measurement": "granulocyte toxicity", "setting": "use of filgrastim in the dose dense regimens", "result": "statistically significant decrease"}]}]}
